Publication PMC12774752, “4E-BP1 differentially regulates translation of a subset of human mRNAs” (The Journal of Biological Chemistry, 2025)
No end group written: not given here. *: point of attachment. FITC = O=C1OC2(c3ccc(O)cc3Oc3cc(O)ccc32)c2ccc(NC(=S)*)cc21

Assays:
eIF4GI557-1599 [1] = target: T1, eIF4GI557-1599 (human, UniProt Q04637 557-1599); test: fluorescence anisotropy; mRNA pre-bound by eIF4E•FITC-4E-BP1 peptide (label on peptide); 20 mM HEPES-KOH pH 7.5, 200 mM KCl, 1 mM MgCl2, 25 °C; 10 nM labeled mRNA; pre-assembly with 0.5 uM eIF4E and 1 uM 4E-BP1; details: protein: recombinant; tags: N-terminal 6xHis, TEV-cleaved; label: 3' fluorescein; structured 5'UTR
T1 sequence (Q04637 557-1599): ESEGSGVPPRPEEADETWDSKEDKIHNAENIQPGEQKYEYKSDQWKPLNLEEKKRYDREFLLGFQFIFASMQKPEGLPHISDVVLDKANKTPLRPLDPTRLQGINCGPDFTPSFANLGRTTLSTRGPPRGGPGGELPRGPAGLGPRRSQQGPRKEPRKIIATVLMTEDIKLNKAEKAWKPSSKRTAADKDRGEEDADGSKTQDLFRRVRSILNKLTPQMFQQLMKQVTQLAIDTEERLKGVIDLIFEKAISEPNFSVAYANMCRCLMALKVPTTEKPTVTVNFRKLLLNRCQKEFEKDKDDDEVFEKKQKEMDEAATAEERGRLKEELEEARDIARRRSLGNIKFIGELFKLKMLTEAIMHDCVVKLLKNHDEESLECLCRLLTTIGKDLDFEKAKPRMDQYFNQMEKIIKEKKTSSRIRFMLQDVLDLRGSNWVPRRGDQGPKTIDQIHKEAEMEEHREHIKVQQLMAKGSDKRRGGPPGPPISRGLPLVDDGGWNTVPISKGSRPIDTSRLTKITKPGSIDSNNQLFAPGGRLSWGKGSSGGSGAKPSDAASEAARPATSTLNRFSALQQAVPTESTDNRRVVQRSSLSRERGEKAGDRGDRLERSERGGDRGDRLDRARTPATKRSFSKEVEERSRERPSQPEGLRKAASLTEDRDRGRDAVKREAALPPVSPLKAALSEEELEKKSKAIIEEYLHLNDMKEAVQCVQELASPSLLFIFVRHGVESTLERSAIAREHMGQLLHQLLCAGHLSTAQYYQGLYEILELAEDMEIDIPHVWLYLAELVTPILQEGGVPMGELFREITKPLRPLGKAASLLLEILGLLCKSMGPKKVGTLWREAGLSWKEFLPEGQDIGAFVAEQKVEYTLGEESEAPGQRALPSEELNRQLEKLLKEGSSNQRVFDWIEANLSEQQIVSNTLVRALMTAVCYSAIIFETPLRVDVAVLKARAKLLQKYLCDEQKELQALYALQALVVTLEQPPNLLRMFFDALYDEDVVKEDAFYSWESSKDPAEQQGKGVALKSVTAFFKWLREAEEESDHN

eIF4GI557-1599;eIF4A [2] = target: T2, eIF4GI557-1599;eIF4A (human;human?, UniProt Q04637;P60842 557-1599;1-406, |); test: fluorescence anisotropy; mRNA pre-bound by eIF4E•4E-BP1; 20 mM HEPES-KOH pH 7.5, 200 mM KCl, 1 mM MgCl2, 25 °C; 10 nM labeled mRNA; pre-assembly with 0.5 uM eIF4E and 1 uM 4E-BP1; details: protein: recombinant;recombinant, tags: N-terminal 6xHis, TEV-cleaved;N-terminal His-MBP, copies: 1;1, label: 3' fluorescein; for Kd: structured 5'UTR
T2 sequence (Q04637 557-1599, chain 1 of 2): as the sequence (Q04637 557-1599) above
T2 sequence (P60842 whole entry, chain 2 of 2): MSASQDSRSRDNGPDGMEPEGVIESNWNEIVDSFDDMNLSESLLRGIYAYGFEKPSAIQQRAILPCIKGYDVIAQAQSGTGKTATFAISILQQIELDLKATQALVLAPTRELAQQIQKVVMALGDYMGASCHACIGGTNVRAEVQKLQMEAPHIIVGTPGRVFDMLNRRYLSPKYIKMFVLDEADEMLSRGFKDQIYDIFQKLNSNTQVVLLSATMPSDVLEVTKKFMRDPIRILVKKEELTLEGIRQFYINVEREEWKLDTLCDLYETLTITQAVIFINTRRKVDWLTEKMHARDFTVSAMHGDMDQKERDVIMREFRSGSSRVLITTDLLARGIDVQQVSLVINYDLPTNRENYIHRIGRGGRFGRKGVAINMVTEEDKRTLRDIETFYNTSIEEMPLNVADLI

eIF4GI557-1599 [3] = target: T1, eIF4GI557-1599; test: as above; details: protein: recombinant; tags: N-terminal 6xHis, TEV-cleaved; label: 3' fluorescein; structured 5'UTR
eIF4E = eIF4E (human, UniProt P06730 1-217); test: fluorescence anisotropy; 20 mM HEPES-KOH pH 7.5, 200 mM KCl, 1 mM MgCl2, 25 °C; 10 nM labeled mRNA; pre-assembly with 0.5 uM eIF4E and 1 uM 4E-BP1; details: protein: recombinant, tags: N-terminal polyHis, TEV-cleaved, label: 3' fluorescein
Chain of eIF4E (P06730 whole entry): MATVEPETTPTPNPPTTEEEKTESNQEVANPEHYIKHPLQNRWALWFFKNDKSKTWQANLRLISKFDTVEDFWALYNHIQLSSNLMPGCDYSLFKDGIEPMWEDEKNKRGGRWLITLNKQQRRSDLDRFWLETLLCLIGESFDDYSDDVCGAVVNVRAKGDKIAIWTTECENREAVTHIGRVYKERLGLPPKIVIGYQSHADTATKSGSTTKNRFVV

eIF4GI557-1599 [4] = target: T1, eIF4GI557-1599; test: as above; details: protein: recombinant, tags: N-terminal 6xHis, TEV-cleaved, label: 3' fluorescein; for Kd: structured 5'UTR
eIF4E;4E-BP1 = eIF4E;4E-BP1 (human;human, UniProt P06730;Q13541 1-217;1-118, |); test: as above; details: protein: recombinant;recombinant, tags: N-terminal polyHis, TEV-cleaved;N-terminal 6xHis, copies: 1;1, label: 3' fluorescein
Chain of eIF4E;4E-BP1 (P06730 whole entry, chain 1 of 2): as the sequence (P06730 whole entry) above
Chain of eIF4E;4E-BP1 (Q13541 whole entry, chain 2 of 2): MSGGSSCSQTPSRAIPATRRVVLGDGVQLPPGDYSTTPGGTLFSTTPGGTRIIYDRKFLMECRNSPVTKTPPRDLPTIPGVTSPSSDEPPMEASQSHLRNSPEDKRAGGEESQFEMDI

4E-BP1 = 4E-BP1 (human, UniProt Q13541 1-118); test: as above; details: protein: recombinant, tags: N-terminal 6xHis, TEV-cleaved, label: 3' fluorescein
Chain of 4E-BP1 (Q13541 whole entry): as the sequence (Q13541 whole entry, chain 2 of 2) above

eIF4GI557-1599;eIF4A [5] = target: T2, eIF4GI557-1599;eIF4A; test: fluorescence anisotropy; ATP; mRNA pre-bound by eIF4E•4E-BP1; 20 mM HEPES-KOH pH 7.5, 200 mM KCl, 1 mM MgCl2, 25 °C; 10 nM labeled mRNA; pre-assembly with 0.5 uM eIF4E and 1 uM 4E-BP1; details: protein: recombinant;recombinant, tags: N-terminal 6xHis, TEV-cleaved;N-terminal His-MBP, copies: 1;1, label: 3' fluorescein, structured 5'UTR
eIF4GI557-1599 [6] = target: T1, eIF4GI557-1599; test: fluorescence anisotropy; mRNA pre-bound by eIF4E•FITC-4E-BP1 peptide (label on peptide); text gives error 0.7; 20 mM HEPES-KOH pH 7.5, 200 mM KCl, 1 mM MgCl2, 25 °C; 10 nM labeled mRNA; pre-assembly with 0.5 uM eIF4E and 1 uM 4E-BP1; details: protein: recombinant; tags: N-terminal 6xHis, TEV-cleaved; label: 3' fluorescein; structured 5'UTR
[7] = target: eukaryotic initiation factor 4E (eIF4E) (human, UniProt P06730 1-217); test: fluorescence polarisation; fluorescence anisotropy; 20 nM FITC-labelled 4E-BP1 peptide, free or preincubated with 10 nM eIF4E for 20 min at 25 °C, titrated with protein (eIF4E: 200 ul of 20 nM peptide with 2.5 uM eIF4E); no mRNA; Hill-equation fit; details: both partners purified
Chain of eukaryotic initiation factor 4E (eIF4E) (P06730 whole entry): as the sequence (P06730 whole entry) above

eIF4GI557-1599;eIF4A [8] = target: T2, eIF4GI557-1599;eIF4A; test: fluorescence anisotropy; ATP; mRNA pre-bound by eIF4E•4E-BP1; text gives error 1.5; 20 mM HEPES-KOH pH 7.5, 200 mM KCl, 1 mM MgCl2, 25 °C; 10 nM labeled mRNA; pre-assembly with 0.5 uM eIF4E and 1 uM 4E-BP1; details: protein: recombinant;recombinant, tags: N-terminal 6xHis, TEV-cleaved;N-terminal His-MBP, copies: 1;1, label: 3' fluorescein, structured 5'UTR
eIF4GI557-1599;eIF4A [9] = target: T2, eIF4GI557-1599;eIF4A; test: fluorescence anisotropy; mRNA pre-bound by eIF4E•4E-BP1; text gives error 1.0; 20 mM HEPES-KOH pH 7.5, 200 mM KCl, 1 mM MgCl2, 25 °C; 10 nM labeled mRNA; pre-assembly with 0.5 uM eIF4E and 1 uM 4E-BP1; details: protein: recombinant;recombinant, tags: N-terminal 6xHis, TEV-cleaved;N-terminal His-MBP, copies: 1;1, label: 3' fluorescein, structured 5'UTR
eIF4GI557-1599 [10] = target: T1, eIF4GI557-1599; test: fluorescence anisotropy; text gives error 3.1; 20 mM HEPES-KOH pH 7.5, 200 mM KCl, 1 mM MgCl2, 25 °C; 10 nM labeled mRNA; pre-assembly with 0.5 uM eIF4E and 1 uM 4E-BP1; details: protein: recombinant; tags: N-terminal 6xHis, TEV-cleaved; label: 3' fluorescein; structured 5'UTR
eIF4GI557-1599 [11] = target: T1, eIF4GI557-1599; test: fluorescence anisotropy; mRNA pre-bound by eIF4E•FITC-4E-BP1 peptide (label on peptide); text gives error 1.5; 20 mM HEPES-KOH pH 7.5, 200 mM KCl, 1 mM MgCl2, 25 °C; 10 nM labeled mRNA; pre-assembly with 0.5 uM eIF4E and 1 uM 4E-BP1; details: protein: recombinant; tags: N-terminal 6xHis, TEV-cleaved; label: 3' fluorescein; structured 5'UTR

Row | Kd [7] | Binder | Kd (eIF4GI557-1599 [1]) | Kd (eIF4GI557-1599;eIF4A [2]) | Kd (eIF4GI557-1599 [3]) | Kd (eIF4E; structured 5'UTR) | Kd (eIF4GI557-1599 [4]) | Kd (eIF4E;4E-BP1; structured 5'UTR) | binding result (4E-BP1; structured 5'UTR) | Kd (eIF4GI557-1599;eIF4A [5]) | Kd (eIF4GI557-1599 [6]) | Kd (eIF4GI557-1599;eIF4A [8]) | Kd (eIF4GI557-1599;eIF4A [9]) | Kd (eIF4GI557-1599 [10]) | Kd (eIF4GI557-1599 [11]) | binding result (eIF4GI557-1599;eIF4A [2]; unstructured control) | Kd (eIF4E; unstructured control) | binding result (eIF4GI557-1599 [4]; unstructured control) | Kd (eIF4E;4E-BP1; unstructured control) | binding result (4E-BP1; unstructured control)
1 |  | m7G p53B 5'UTR (structured_RNA, 5' m7G cap) RNA: AUGGAGGAGCCGCAGUCAGAUCCUAGCGUCGAGCCCCCUCUGAGUCAGGAAACAUUUUCAGACCUAUGGAAACUACUUCCUGAAAACAACGUUCUGUCCCCCUUGCCGUCCCAAGCA | 47 ± 0.7 nM | 21 ± 2.2 nM | 18 ± 0.3 nM | 54 ± 2.3 nM | 18 ± 3.1 nM | 28 ± 2.3 nM | no binding | 22 ± 1.1 nM |  |  |  |  |  |  |  |  |  | 
2 |  | ApppG p53B 5'UTR (structured_RNA, 5' ApppG cap (non-functional)) RNA: AUGGAGGAGCCGCAGUCAGAUCCUAGCGUCGAGCCCCCUCUGAGUCAGGAAACAUUUUCAGACCUAUGGAAACUACUUCCUGAAAACAACGUUCUGUCCCCCUUGCCGUCCCAAGCA |  | 28 ± 1.8 nM | 22 ± 0.8 nM | 159 ± 4.2 nM | 66 ± 1.7 nM | 89 ± 3.5 nM | no binding | 21 ± 1.1 nM | 42 ± 2 nM |  |  |  |  |  |  |  |  | 
3 | 5 ± 3.7 nM | PGGTRIIYDRK(FITC)FLMECRNSP (also called FITC-4E-BP1 peptide; 4E-BP1-FITC-Peptide; source: synthetic peptide, bought: GenScript (>=98% purity)) [fluorescein-labeled 4E-BP1 peptide] |  |  |  |  |  |  |  |  |  |  |  |  |  |  |  |  |  | 
4 |  | m7G HIF-1alpha 5'UTR (structured_RNA, 5' m7G cap) RNA: AGUGCACAGUGCUGCCUCGUCUGAGGGGACAGGAGGAUCACCCUCUUCGUCGCUUCGGCCAGUGGUCGGGCUGGGCCCUGACAAGCCACCUGAGGAGAGGCUCGGAGCCGGGCCCGGACCCCGGCGAUUGCCGCCCGCUUCUCUCUAGUCUCACGAGGGGUUUCCCGCCUCGCACCCCCACCUCUGGACUUGCCUUUCCUUCUCUUCUCCGCGUGUGGAGGGAGCCAGCGCUUAGGCCGGAGCGAGCCUGGGGGCCGCCCGCCGUGAAGACAUCGCGGGGACCGAUUCACC | 21 ± 0.7 nM | 20 ± 1.3 nM | 15 ± 3.4 nM | 56 ± 1.5 nM | 22 ± 0.5 nM | 15 ± 3.4 nM | no binding |  |  | 21 ± 0.5 nM |  |  |  |  |  |  |  | 
5 |  | ApppG HIF-1alpha 5'UTR (structured_RNA, 5' ApppG cap (non-functional)) RNA: AGUGCACAGUGCUGCCUCGUCUGAGGGGACAGGAGGAUCACCCUCUUCGUCGCUUCGGCCAGUGGUCGGGCUGGGCCCUGACAAGCCACCUGAGGAGAGGCUCGGAGCCGGGCCCGGACCCCGGCGAUUGCCGCCCGCUUCUCUCUAGUCUCACGAGGGGUUUCCCGCCUCGCACCCCCACCUCUGGACUUGCCUUUCCUUCUCUUCUCCGCGUGUGGAGGGAGCCAGCGCUUAGGCCGGAGCGAGCCUGGGGGCCGCCCGCCGUGAAGACAUCGCGGGGACCGAUUCACC | 30 ± 3.1 nM | 19 ± 0.6 nM | 25 ± 1.8 nM | 199 ± 1.5 nM | 67 ± 1.8 nM | 52 ± 0.5 nM | no binding | 24 ± 4.3 nM |  |  |  |  |  |  |  |  |  | 
6 |  | m7G FGF-9 5'UTR (structured_RNA, 5' m7G cap) RNA: GAAACAGCAGAUUACUUUUAUUUAUGCAUUUAAUGGAUUGAAGAAAAGAACCUUUUUUUUUCUCUCUCUCUCUGCAACUGCAGUAAGGGAGGGGAGUUGGAUAUACCUCGCCUAAUAUCUCCUGGGUUGACACCAUCAUUAUUGUUUAUUCUUGUGCUCCAAAAGCCGAGUCCUCUG | 32 ± 0.3 nM | 23 ± 1.3 nM | 24 ± 0.9 nM | 72 ± 1.6 nM | 20 ± 2 nM | 32 ± 3.9 nM | no binding | 24 ± 1.5 nM |  |  |  |  |  |  |  |  |  | 
7 |  | ApppG FGF-9 5'UTR (structured_RNA, 5' ApppG cap (non-functional)) RNA: GAAACAGCAGAUUACUUUUAUUUAUGCAUUUAAUGGAUUGAAGAAAAGAACCUUUUUUUUUCUCUCUCUCUCUGCAACUGCAGUAAGGGAGGGGAGUUGGAUAUACCUCGCCUAAUAUCUCCUGGGUUGACACCAUCAUUAUUGUUUAUUCUUGUGCUCCAAAAGCCGAGUCCUCUG | 25 ± 1 nM |  | 13 ± 0.6 nM | 138 ± 4.6 nM | 28 ± 0.7 nM | 87 ± 2 nM | no binding | 18 ± 1 nM |  |  | 15 ± 0.3 nM |  |  |  |  |  |  | 
8 |  | m7G p53A 5'UTR (structured_RNA, 5' m7G cap) RNA: UCUAGAGCCACCGUCCAGGGAGCAGGUAGCUGCUGGGCUCCGGGGACACUUUGCGUUCGGGCUGGGAGCGUGCUUUCCACGACGGUGACACGCUUCCCUGGAUUGGCAGCCAGACUGCCUUCCGGGUCACUGCC | 29 ± 1.3 nM | 33 ± 0.7 nM | 31 ± 5.9 nM | 59 ± 7.5 nM |  | 13 ± 1.1 nM | no binding | 35 ± 1.3 nM |  |  |  | 44 ± 1 nM |  |  |  |  |  | 
9 |  | ApppG p53A 5'UTR (structured_RNA, 5' ApppG cap (non-functional)) RNA: UCUAGAGCCACCGUCCAGGGAGCAGGUAGCUGCUGGGCUCCGGGGACACUUUGCGUUCGGGCUGGGAGCGUGCUUUCCACGACGGUGACACGCUUCCCUGGAUUGGCAGCCAGACUGCCUUCCGGGUCACUGCC |  | 20 ± 2 nM | 25 ± 1.1 nM | 186 ± 0.8 nM | 81 ± 1.3 nM | 45 ± 1.6 nM | no binding | 16 ± 0.8 nM |  |  |  |  | 35 ± 0.5 nM |  |  |  |  | 
10 |  | m7G beta-actin 5'UTR (structured_RNA, 5' m7G cap) RNA: GGACCGCCGAGACCGCGUCCGCCCCGCGAGCACAGAGCCUCGCCUUUGCCGAUCCGCCGCCCGCCACACCCGCCGCCAGCUCAC |  |  |  |  |  |  |  |  |  |  |  |  |  | no binding | 28 ± 1.8 nM | no binding | 12 ± 0.6 nM | no binding
